# Source: the supplement of paper PMC10567573
# B1: INTS3 (parent)
# chain: FHPIKETVVEEPVDITPYLDQLDE
# Variants of: B1
# Experiment: protein stability index of a GFP-peptide fusion (GPS, HEK-293T) (PSI 1-6); higher = more stable
# Conditions: c terminus: a fixed tail appended
# 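Also: lentivirally expressed fusions sorted by FACS into six bins by GFP to DsRed ratio, PSI derived from sequencing read proportions per bin multiplied by bin number.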
row,Variant,protein stability index
1,FQPIKETVVEEPVDITPYLDQLDE,4.7
2,FTPIKETVVEEPVDITPYLDQLDE,4.62
3,FEPIKETVVEEPVDITPYLDQLDE,5.26
4,FSPIKETVVEEPVDITPYLDQLDE,5.47
5,FPPIKETVVEEPVDITPYLDQLDE,5.03
6,FDPIKETVVEEPVDITPYLDQLDE,5.42
7,FFPIKETVVEEPVDITPYLDQLDE,4.86
8,FLPIKETVVEEPVDITPYLDQLDE,4.87
9,FGPIKETVVEEPVDITPYLDQLDE,5.35
10,FAPIKETVVEEPVDITPYLDQLDE,4.34
11,FIPIKETVVEEPVDITPYLDQLDE,3.71
12,FVPIKETVVEEPVDITPYLDQLDE,2.16
13,FMPIKETVVEEPVDITPYLDQLDE,4.87
14,FRPIKETVVEEPVDITPYLDQLDE,4.81
15,FWPIKETVVEEPVDITPYLDQLDE,4.2
16,FCPIKETVVEEPVDITPYLDQLDE,4.11
17,FKPIKETVVEEPVDITPYLDQLDE,5.24
18,FYPIKETVVEEPVDITPYLDQLDE,4.63
19,FNPIKETVVEEPVDITPYLDQLDE,5.18
20,FHPWKETVVEEPVDITPYLDQLDE,2.87
21,FHPGKETVVEEPVDITPYLDQLDE,4.25
22,FHPKKETVVEEPVDITPYLDQLDE,3.08
23,FHPDKETVVEEPVDITPYLDQLDE,4.08
24,FHPMKETVVEEPVDITPYLDQLDE,4.2

row,Variant,protein stability index
1,FHPEKETVVEEPVDITPYLDQLDE,4.06
2,FHPHKETVVEEPVDITPYLDQLDE,4.1
3,FHPAKETVVEEPVDITPYLDQLDE,2.98
4,FHPPKETVVEEPVDITPYLDQLDE,2.96
5,FHPNKETVVEEPVDITPYLDQLDE,3.85
6,FHPYKETVVEEPVDITPYLDQLDE,2.77
7,FHPFKETVVEEPVDITPYLDQLDE,3.4
8,FHPQKETVVEEPVDITPYLDQLDE,3.83
9,FHPRKETVVEEPVDITPYLDQLDE,3.17
10,FHPCKETVVEEPVDITPYLDQLDE,3.31
11,FHPSKETVVEEPVDITPYLDQLDE,3.87
12,FHPVKETVVEEPVDITPYLDQLDE,3.82
13,FHPTKETVVEEPVDITPYLDQLDE,3.9
14,FHPLKETVVEEPVDITPYLDQLDE,3.85
15,FHPIDETVVEEPVDITPYLDQLDE,4.86
16,FHPINETVVEEPVDITPYLDQLDE,4.8
17,FHPIPETVVEEPVDITPYLDQLDE,4.29
18,FHPIMETVVEEPVDITPYLDQLDE,4.24
19,FHPIIETVVEEPVDITPYLDQLDE,3.14
20,FHPIFETVVEEPVDITPYLDQLDE,3.73
21,FHPISETVVEEPVDITPYLDQLDE,4.99
22,FHPIRETVVEEPVDITPYLDQLDE,3.9
23,FHPILETVVEEPVDITPYLDQLDE,3.87
24,FHPIQETVVEEPVDITPYLDQLDE,3.35

row,Variant,protein stability index
1,FHPIAETVVEEPVDITPYLDQLDE,4.47
2,FHPICETVVEEPVDITPYLDQLDE,3.99
3,FHPIGETVVEEPVDITPYLDQLDE,4.4
4,FHPIWETVVEEPVDITPYLDQLDE,2.15
5,FHPIEETVVEEPVDITPYLDQLDE,5.06
6,FHPIVETVVEEPVDITPYLDQLDE,4.17
7,FHPIYETVVEEPVDITPYLDQLDE,2.83
8,FHPITETVVEEPVDITPYLDQLDE,4.29
9,FHPIHETVVEEPVDITPYLDQLDE,4.67
10,FHPIKCTVVEEPVDITPYLDQLDE,1.78
11,FHPIKHTVVEEPVDITPYLDQLDE,2.01
12,FHPIKITVVEEPVDITPYLDQLDE,1.57
13,FHPIKGTVVEEPVDITPYLDQLDE,3.04
14,FHPIKLTVVEEPVDITPYLDQLDE,1.9
15,FHPIKMTVVEEPVDITPYLDQLDE,2
16,FHPIKRTVVEEPVDITPYLDQLDE,1.98
17,FHPIKDTVVEEPVDITPYLDQLDE,3.77
18,FHPIKPTVVEEPVDITPYLDQLDE,2.89
19,FHPIKQTVVEEPVDITPYLDQLDE,2.1
20,FHPIKFTVVEEPVDITPYLDQLDE,1.53
21,FHPIKATVVEEPVDITPYLDQLDE,2.42
22,FHPIKNTVVEEPVDITPYLDQLDE,2.67
23,FHPIKKTVVEEPVDITPYLDQLDE,2.34
24,FHPIKSTVVEEPVDITPYLDQLDE,2.52

row,Variant,protein stability index
1,YHPIKETVVEEPVDITPYLDQLDE,3.3
2,WHPIKETVVEEPVDITPYLDQLDE,4.97
3,VHPIKETVVEEPVDITPYLDQLDE,5.44
4,FHDIKETVVEEPVDITPYLDQLDE,4.79
5,FHGIKETVVEEPVDITPYLDQLDE,4.49
6,FHEIKETVVEEPVDITPYLDQLDE,5
7,FHMIKETVVEEPVDITPYLDQLDE,2.9
8,FHFIKETVVEEPVDITPYLDQLDE,2.52
9,FHHIKETVVEEPVDITPYLDQLDE,3.56
10,FHLIKETVVEEPVDITPYLDQLDE,3.14
11,FHAIKETVVEEPVDITPYLDQLDE,3.82
12,FHNIKETVVEEPVDITPYLDQLDE,4.63
13,FHQIKETVVEEPVDITPYLDQLDE,3.78
14,FHWIKETVVEEPVDITPYLDQLDE,1.73
15,FHCIKETVVEEPVDITPYLDQLDE,3.23
16,FHKIKETVVEEPVDITPYLDQLDE,4.82
17,FHSIKETVVEEPVDITPYLDQLDE,4.03
18,FHVIKETVVEEPVDITPYLDQLDE,4.19
19,FHYIKETVVEEPVDITPYLDQLDE,2.75
20,FHRIKETVVEEPVDITPYLDQLDE,3.76
21,FHTIKETVVEEPVDITPYLDQLDE,3.43
22,FHIIKETVVEEPVDITPYLDQLDE,2.66
